Laboratory results reported in the nanobody polyreactivity screen of Harvey et al. (2022).

Assay: yeast display, Sf9 membrane polyspecificity reagent, FACS + sequencing; frameworks hold sequencing errors
Method in brief: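 Synthetic nanobody libraries on Saccharomyces cerevisiae BJ5465 were galactose-induced for 36–48 hours, stained 1 hour at 4 °C with 10% biotinylated, detergent-solubilized Sf9 membrane reagent and enriched on streptavidin microbeads. FACS then separated cells into low and high (top ~1%) gates by anti-HA (expression) and streptavidin (reagent binding) fluorescence. Genes were colony-PCR amplified, MiSeq 2 × 250 sequenced and CDR-length filtered. A clone's polyreactivity label is that of its gate of origin.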

Row | Sequence | polyreactivity (PSR sort gate)
1 | QVQLQESGGGQVQAGGSLRLSCAASGYISTHYFMGWYRQAPGKDREFVAGISNGSITNYADSVKGRFTISRDNARNTVYLQMNSLKPEDTEVYYGAAYEWTYVRFGYWGQGTQVTVSG | high polyreactivity
2 | QVQLVESGGGLVQAGGSLRVSCGASGRTFLFYAMGWYRQAPGKERELVASITGRGGRTSYADSEKGRFTISRDNAKNTVYLQKNSLKPEDTAVYYCAARNPYTSTYYDWGQGTQETVSS | high polyreactivity
3 | QVQLVESGGGLVQAGGSLRLSCAASGFTLRAYAMGWYRQAPGKERELVAAISSGGSTYADSVKGRFTISRDNAKNTVYLQMNSLKPEDTAVYYCAADGSKLFYSKFRYVQYGYWGQGTQVTVSS | high polyreactivity
4 | QVQLVESGGGLVQAGGSLRLSCAASGSTFVYAMVWYRPAPGKERELVAAITTGDSTYYADSVKGRFTISRDNAKNTVYLQMNSLKPEDTAVYYCAAQWYTRDGEYGYWGQGTQVTVSS | low polyreactivity
5 | QFQLVESGRGLVQAGGSLRLSCAASGRTFTYYAMGWYRQAPGNERELVAAIRYTGGSTHYADSVKGRFTISRENAKNTVYFQMNSLKPEDTAVYYCADRRAYTRGGTVYFGYYYWGQGTQVTVSS | high polyreactivity
6 | QVQLVESGGGLVQAGGSLRLICAASGSIFGWNAMGWYRQAPGKERELVASITWSGGRTYYADSVKGRFTISRDNAKNTVYLQMNSLKPEDTAVYYCAADYKPTSRSNKYYYWGQGTQVTVSS | high polyreactivity
7 | QVQLLESGGGLVQAGGSLRLSCAASGITFSRNAMGWYRQAPGKERELVATITSGGSTNYADSVKGRFTITRDNAMNTVYLQMISLKPEDTAVYYCYAVWNTFISGRSYEYWGQGTQVTVSS | low polyreactivity
8 | QVQLVESGGGLVQAGGSLRLSSAASGRIFYRYTMGWYRQAPGKERELVAAITRGSTNYADSVKGRFTISRDNAKNTVYLQMNSLKPDDTAVYYWAKAYSRTDRFSSPYYYYWGQGTQVTVSS | high polyreactivity
9 | QVQLVESGGRLVQAGGRLRLSGAASGSNFTDNAMGWYRQAPGKERELVAGISERGSSTYYADSVKGRFTISRDNAKNTVYLQMNSLKRVDTAVYYCSAEDVGRYWSSTHNWARGDYWGQGTQVTVSS | low polyreactivity
10 | QVQLVESGGGLVQAGGSLRLSCAASGRIFGVYAMGWYRQAPGKERELVADISWSADSTYYADSVKGRFTISRDNAKNTVYLQMNSLKPEDTAVYYCAADALFNVQNSRGYDYWGQGTQVTVSS | low polyreactivity
11 | QVQLVESGGGLVQAGGSLRLSCAASGFTLDSNALGWYRQAPGKERELVAAISWDDGSTYYADSVKGRFTISRDNAKNTVYLQMNSLKPEDTAVYYCAADASDVYGDRPWFHYYWGYDYWGQGTQVTVSS | low polyreactivity
12 | QVQLVESGGGLVQAGGSLRLSCAASGLIFFSYAMGWYRQAPGKERELVAAISRRGGRTYYADSVKGRFTISRDNAKNTVYLQMNSLKPEDTAASYCATYVASHRGDRTYDHWGQCTQVTVSS | low polyreactivity
13 | QVQLVESGGGLGQAGGSLRLSCAASGRIFYSYAMGWSRQAPGKESELVAAITESGGSTNYADSVKGRFTISRDNAKNTVYLQMNSLNPEDTAVFYCNARYKLTFNLYNYWGQGTQVTVSS | low polyreactivity
14 | QVQHVESGGGLVQAGGSLRLSCAASGRTFDRNAMGWYRQPPGKERELVAGITRSGDSTYADSVKVRFTISRDNAKNTVYLQMNSLKPVDTAVYYCNKEGTIGGTRGYWGQGTQVTVSS | low polyreactivity
15 | QVQLVESGGGLVQAGGSLRLSCAASGFTFYGNAMGWYRQAPGKERELVASISTYYADSVKGRFTISRDNAKNTVYLQMNSLKPEDTAVYYCAATHYDRTFYVIYDYWGQGTQVTVSS | low polyreactivity
16 | QVQLVESGGGLVQAGRSLRLSCAASGRTFYYYAMVWNRQAPGKERELVAAISWRSGSTYYADSVKGRFTISRDNAKNTLYLQMNSLKPEDTAVYYCATSVRFYWFADGYWGQGTQVTVSS | high polyreactivity
17 | QVQLVESGGGLVQAGGSLRLSCAASGRTFANNAMGSYRPAPGKAREWVASISITTSTYYADSVKGRFTISRDNAKITVYLQLNSLKPEDTPVYYCAAYYFIHAGPWEFDYWGQGTQVTVSS | low polyreactivity
18 | QFQLEESGGGLVQAGGSLRLSCAASGSTFSSYVMGWYRQAPGKERELVAAISSIGGSTYYADSVKGRFTISRDNAKNTVYLQMNSLKPEDTAVYYCAAEPPGSTYEGGYLGQGTQVTVSS | low polyreactivity
19 | QVQLVESGGGLVQAGGSLRLSCAASGSILGYYGMGWYRHAPGKERELVAAISSSCNTNYADSVKGRFTISRDNAKNTVYLQMMSLKPEDTAVYYCAASFQYVAYYLYDYWGQGTQVTVSS | low polyreactivity
20 | QVQHVETRGGLVQAGGSLRLSCAASGFIFIRYAMGWDRQAPGKERELVAGITSSGGSTYYADSVKGRFTISRDNAKNSVYLQMNSLKPEDTEVYFCNADSWLYRFYGYDYWGQGTQVTVSS | low polyreactivity

Row | Sequence | polyreactivity (PSR sort gate)
21 | QVQLVESGGGLVQAGGSLRLSCAASGSIFRYNAMGWYRQAPGKDRELVAAISSGGSTKYADSVKGRFTISRDNAKNTVYLQMNSMKPEDTAVYFCVARRARYDYWGQGTQVTVSS | high polyreactivity
22 | QVQLVESGGGLVQAGGSLRLSCAASGSTFVPYVMGWYRQAPGKERELVAAISKSGTSTYYADSVKGRFTISRDNAKNTDYLQMNSLKPEDTAVYYCAAVARRQVPYDYWGQGTQVTVSS | high polyreactivity
23 | QVQLVESGGGLVQAGGSLRLSCAASGRTLKVYAMGWYRQAPGKERELVAAINNGGSTNYADSVKGRFTISRDNAKNTVYLQMNSLKPEDTAVYYCNAVYYARYRNYTYYYWGQGTQVTVSS | high polyreactivity
24 | QVQLVESRVGLVQAGGSLRLSCAASGFTFGHYVMGWYRQAPGKERELVAAITLSGGGTYYADSVKGRFTISRDNAKNTVYLQMNSLKPEDTAVYYCAAVGGEHAKKTYSRYKVDYWGQGTQVTVSS | low polyreactivity
25 | QVQLVESGGGLVHAGGSLRLSCAASGGTFVYNAMGWYRQAPGKERELVAVISKRGGSTYYADSVKGRFTISRDNAKNTVYLEMISLKPEDTAVYYCAVSYRSFRYYWERYYSWGQGTQVTVSS | high polyreactivity
26 | QVQLVESGGGLVQAGGSLRLSCAASGRIFYYYAMGWYRQAPGKERELFADITWSGGSTYYADSVKGRFTISRDNAKNTVYLQMNSLKPEDTAVNYCNAVYFNYLLEYDYWGQGTQVTVSS | high polyreactivity
27 | QVQLVESGGGLVQAGGSLRLSCAASGRTFRLYAMGWYRQAPGKERELVAAITRGGRTNYADSVKGRFTISRDNAKNTVYLQMNSLKPEDTAVYYCATDLVGAGVKGVRFVGRYRGDYWGQGTQVTVSS | low polyreactivity
28 | QVQLVESGGGLVQAGGSLRLSCAASGSTFVLNAMGWYRQAPGKERELVAAINLDSGNTNYADSVKGRFTISRDNAKYTVYLQMNSLKPEDTAVYYCNTDVKFGGTAYDYWGQGTQVTVSS | low polyreactivity
29 | QDQLVESGGALVQAGGSLRLSCAASGFTFYKNAMGWYRQAPGKERELVAAISADGGRTYYADSVKGRFTISRDNAKNTVYLQMNSLKPEDTAVYYCAADKRLFRRPKTYDLWGQGTQVTVSS | high polyreactivity
30 | QVQLEDSGGGLDQAGGSLRLSCAASGITFIRYAMVWYRQAPGKERELVAAIPTSGSSKFYADSVKGRFTISRDNAKNTVYLQMNSLKPEDTAVYYCAAVFRWARLYTFYGSKVDYWGQGTQVTVSS | high polyreactivity
31 | QVQLVESGGGLVQAGGSLPLSCAASGSIFGINAMGWYRQAPGKERELVAAISSRGASTYYADSVKGRFTISRDNAKNTVYLQMNSLKPEDTAVYYCAADAFYWGQGTQVTVSS | low polyreactivity
32 | QVQLVESGGGLVKAGGSLRLSCAASGRTLRSYDMGWYRQAPGKEREVVAAITRTGGDTYYADSVKGRFTISRDNAKNTVYLQMNRLKPDDTAVYYCAAQRYRGYDYWGQGTQVTVSS | high polyreactivity
33 | QVQLVESGGGLVQAGGSLRLSCAASGSIFPQYAMGWYRQAPGKERELVAVISWSGGRTYYADSVKGRFTISRDNAKNTVYLQMNSLKPEDTAVYYCAAKYWYQRYPQSSYTRYYWGQGTQVTVSS | high polyreactivity
34 | QVQLVESGGGLVQAGGSLRLTCAPSGFIFTPNAIGWYRQAPGKERELVAAISRGGGSTYYADSVKGRFTISRDNAKNTVYLQMNSLKPQDTAVYYCNARSKNGGTTFGYWGEGTQVTVSS | high polyreactivity
35 | QVQLVESGGGLVQAGGSLRLSCAASGIIFPSYDMGWYRQAPGKERELVAAINSGDSTYYADSVKGRFTISRDNAKNTVYLQMNSLKPEDTAVYYCAANPGDLGGWYVPYDYWGQGTQVTVSS | low polyreactivity
36 | QVQLVESGGGLVQAGGSLRLSCAASGSNFQVNAMGWYRQAPGKERELVASIDSSGGSTYYADSVKGRFTISRDNAKNTVYLQMNSLKPEDTAVFYCAAEYHHYYYYWGEYWGQGTQVTVSS | low polyreactivity
37 | QVQLEESGAGLVQAGGSLRLSCAASGSIFNLYAMGWYRQAPGKEMELVAAINWSGGSTYYADSVKGRFTISRDNAKNTVYLQMNSLKPEDTAVYYCAADAYSTYYGYEGDYWGQGTQVTVSS | low polyreactivity
38 | QVQLVESGGGLVQAGGRLRLSCAASGLIFDDYAMGWYRQAPGKERALVAAIDWGGGSTYYADSVKGRFTISRDNAKNTVYLQMNSLTPEHTAVYYCAADSYFSYRYNYWGQGTQVTVSS | low polyreactivity
39 | QVQLVESGGGLVQAGGSLRLSCAASGITLFYYAMGWYRQAPGKERELVAVISASGGSTYYADSVKGRFTISRDNAKNTVYLQMNSLKPEDTAVYYCAAVAYWRSSSWYYYWGQGTQVTVSS | high polyreactivity
40 | QVQLVESGGGLVQAGGSLRLSCAASGIIFYLNAMGWYRQAPGKERELVAAISSSGGRTNYADSVKGRFTISRDNAKNSVYLQMNSLKPEDTAVYFCAAVITFYRYPPGETYYYWGQGTQVTVSS | high polyreactivity
